Where two headings read alike, the source gives them in different places.
T1: MgR D284A (RNase R, catalytically inactive) (Mycoplasma genitalium, UniProt P47350 1-725, D284A)
T1 sequence: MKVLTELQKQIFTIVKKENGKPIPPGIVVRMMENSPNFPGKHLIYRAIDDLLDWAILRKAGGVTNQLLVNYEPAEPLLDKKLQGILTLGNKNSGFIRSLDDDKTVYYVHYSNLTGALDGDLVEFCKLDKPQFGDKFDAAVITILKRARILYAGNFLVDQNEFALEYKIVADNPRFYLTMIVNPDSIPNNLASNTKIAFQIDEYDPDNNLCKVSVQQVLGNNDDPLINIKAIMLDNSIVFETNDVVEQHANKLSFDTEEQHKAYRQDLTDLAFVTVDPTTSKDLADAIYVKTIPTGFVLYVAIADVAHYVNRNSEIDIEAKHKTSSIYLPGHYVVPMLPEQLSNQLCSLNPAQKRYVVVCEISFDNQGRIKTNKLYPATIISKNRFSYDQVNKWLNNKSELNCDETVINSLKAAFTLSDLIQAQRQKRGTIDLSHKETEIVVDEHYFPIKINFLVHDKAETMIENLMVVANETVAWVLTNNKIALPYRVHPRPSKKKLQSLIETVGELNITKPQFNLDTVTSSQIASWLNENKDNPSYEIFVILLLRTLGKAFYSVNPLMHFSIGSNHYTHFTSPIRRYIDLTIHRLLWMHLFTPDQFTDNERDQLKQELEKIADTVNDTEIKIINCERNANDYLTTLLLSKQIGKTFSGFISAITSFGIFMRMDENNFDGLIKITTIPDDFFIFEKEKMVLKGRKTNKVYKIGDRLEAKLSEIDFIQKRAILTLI


What was measured:
[1] = biological target: T1, MgR D284A (RNase R, catalytically …); assay: crystal structure
[2] = biological target: T1, MgR D284A (RNase R, catalytically …); assay: fluorescence polarization
[3] = biological target: T1, MgR D284A (RNase R, catalytically …); assay: crystal structure; remark: listed apart in the source

Binder | Kd [2] [nM] | further results
6-bp dsRNA with 7-nt 3' overhang (dsRNA) RNA 1: CCGUGUAAAAAAA RNA 2: ACACGG | – | binding result [1]: binds
CAAACAAAACCGUGUAAAAACAAA (ssRNA) [24-nt ssRNA, unmethylated] | 6.62 ± 0.7 | –
CAAACAAAACCGUGUAAAAACAAA (ssRNA, 2'-O-methyl at G12, G14, A23 ('me' read as suffix, as in the rA15 30-mer)) [24-nt ssRNA, 2'-O-methylated] | 6.63 ± 0.69 | –
AAAA (ssRNA, 2'-O-methyl at A3 ('me' read as suffix)) [4-nt 2'-O-methylated oligo rA (AAAmeA)] | – | binding result [3]: binds
